Our source for the stoichiometry N (CAL1:CENP-A:H4 = 1:1:1) values is paper PMC7110144.

Test [1] has as its target His-CAL1(1-50) (Drosophila melanogaster) (UniProt Q9VEN2). Nature of the test: SEC-MALS; complexes refolded from recombinant proteins; Superdex 200 increase 10/300 GL, 50 mM HEPES pH 8.0, 2 M NaCl, 1 mM TCEP, 22°C; 100 µl of 1-5 mg/ml. A general note: SEC sorts molecules by how far they enter the pores of the column.
The target in test [2] is His-CAL1(1-160) (Drosophila melanogaster) (UniProt Q9VEN2). The description is as above.
Sequence of His-CAL1(1-160) (Drosophila melanogaster) (Q9VEN2 entry or part of it): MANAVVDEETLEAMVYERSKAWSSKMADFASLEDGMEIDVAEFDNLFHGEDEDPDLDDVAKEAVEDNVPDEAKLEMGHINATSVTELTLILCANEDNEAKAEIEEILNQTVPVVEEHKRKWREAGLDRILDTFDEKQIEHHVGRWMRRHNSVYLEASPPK

Sequence of CENP-A(144-225)-H4 (Q9V6Q2 144-225, one chain of several): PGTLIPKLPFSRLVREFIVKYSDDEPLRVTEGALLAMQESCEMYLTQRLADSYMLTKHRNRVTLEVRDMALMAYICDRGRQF
Sequence of His-CAL1(1-50) (Drosophila melanogaster) (Q9VEN2 entry or part of it): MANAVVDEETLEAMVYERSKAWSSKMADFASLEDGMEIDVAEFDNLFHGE
Sequence of CENP-A(101-225)-H4 (from UniProt Q9V6Q2 101-225; P84040 1-103) (complex) (Q9V6Q2 101-225, one chain of several): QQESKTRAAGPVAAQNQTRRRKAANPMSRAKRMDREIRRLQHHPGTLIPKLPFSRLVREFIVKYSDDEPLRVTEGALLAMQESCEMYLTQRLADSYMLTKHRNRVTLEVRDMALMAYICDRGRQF
Sequence of CENP-A(101-225)-H4 (from UniProt Q9V6Q2 101-225; P84040 1-103) (complex; other documents disagree on this pair) (Q9V6Q2 101-225, one chain of several): as above

For the substance “CENP-A(101-225)-H4 (from UniProt Q9V6Q2 101-225; P84040 1-103) (complex)”, in test [1], the stoichiometry N (CAL1:CENP-A:H4 = 1:1:1) turned out to be 1. In the case of “CENP-A(101-225)-H4 (from UniProt Q9V6Q2 101-225; P84040 1-103) (complex; other documents disagree on this pair)”, the stoichiometry N (CAL1:CENP-A:H4 = 1:1:1) in test [2] came out at 1. Turning to “CENP-A(144-225)-H4 (from UniProt Q9V6Q2 144-225; P84040 1-103) (complex; other documents disagree on this pair)”, in test [2], the stoichiometry N (CAL1:CENP-A:H4 = 1:1:1) turned out to be 1.
